Data: patent US20220119534A1 (DRAGONFLY THERAPEUTICS, published 2022)
Positions count from the first letter of the chain named. Numbers in names are those of the source.

Legend:
[1] = molecular target: T1, mFc-hNKG2D (human, UniProt P26718 73-216); experiment: SPR Biacore 8K 37 C; mFc-hNKG2D captured on anti-mFc chip, TriNKET as analyte; 1:1 kinetic fit; pH 8.0 control
T1 construct: extracellular domain; Made in house (Dragonfly Tx); the order of tag and ECD follows the name mFc-hNKG2D; also called mFc-tagged human NKG2D; not shown: mouse Fc tag
T1 sequence (looked up): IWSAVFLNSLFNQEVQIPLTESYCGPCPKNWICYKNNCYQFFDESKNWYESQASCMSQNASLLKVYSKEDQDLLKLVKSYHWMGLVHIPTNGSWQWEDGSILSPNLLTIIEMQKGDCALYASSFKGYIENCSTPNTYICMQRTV

[2] = molecular target: T2, Human CLEC12A-His (recombinant, K244 WT) (human, UniProt Q5QGZ9 65-265); experiment: SPR, two-state fit; after pH 8, 40C, 2 wks
T2 construct: Made in house (Dragonfly Tx); also called hCLEC12A; hCLEC12A-His; not shown: His tag
T2 sequence: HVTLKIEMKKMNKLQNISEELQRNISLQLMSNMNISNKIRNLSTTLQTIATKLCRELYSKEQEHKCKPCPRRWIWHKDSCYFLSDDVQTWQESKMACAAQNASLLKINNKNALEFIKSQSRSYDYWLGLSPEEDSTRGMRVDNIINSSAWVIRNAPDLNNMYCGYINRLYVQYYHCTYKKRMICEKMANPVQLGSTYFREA

[3] = molecular target: T3, Cynomolgus CD16 (FcγRIII) (cynomolgus monkey, UniProt Q8SPW2 17-208, biotinylated); experiment: SPR 25C, average
T3 construct: Bought recombinant receptor; also called cFcγRIII; Cyno FcγRIII

[4] = molecular target: T4, Human CLEC12A expressed on cells (Ba/F3-hCLEC12A, PL21, HL60) (human, UniProt Q5QGZ9 1-265); experiment: cell-based or functional assay
T4 sequence: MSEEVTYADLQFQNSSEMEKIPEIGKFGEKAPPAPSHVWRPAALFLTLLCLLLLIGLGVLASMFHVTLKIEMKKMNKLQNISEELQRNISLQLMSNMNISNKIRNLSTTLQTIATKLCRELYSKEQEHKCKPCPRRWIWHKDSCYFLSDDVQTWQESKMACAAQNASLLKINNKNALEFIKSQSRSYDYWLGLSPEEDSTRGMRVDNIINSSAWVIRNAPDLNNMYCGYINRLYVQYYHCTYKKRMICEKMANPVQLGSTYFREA

[5] = molecular target: T5, Human CD32b (human, UniProt P31994 46-217, limits assumed, biotinylated); experiment: SPR, steady state fit; average for AB0192
T5 construct: Bought recombinant receptor; also called hFcγRIIb
T5 sequence (looked up): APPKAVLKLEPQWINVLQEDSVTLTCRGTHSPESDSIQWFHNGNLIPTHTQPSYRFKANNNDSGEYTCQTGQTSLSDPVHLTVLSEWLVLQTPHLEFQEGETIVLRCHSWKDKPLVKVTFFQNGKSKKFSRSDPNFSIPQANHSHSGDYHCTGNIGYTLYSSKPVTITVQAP

[6] = molecular target: T6, Human CD64 (human, UniProt P12314 16-288, biotinylated); experiment: SPR, human CD64 captured; average for AB0192
T6 construct: Bought recombinant receptor; also called hFcγRI; Human CD64 (FcγRI)

[7] = molecular target: T6, Human CD64; experiment: SPR, summary of FcγR affinities
[8] = molecular target: T7, Human CD16b (human, UniProt O75015 17-200, limits assumed, biotinylated); experiment: SPR, summary of FcγR affinities
T7 construct: Bought recombinant receptor; also called hFcγRIIIb

[9] = molecular target: T8, Human CD32a H131 (human, UniProt P12318 36-218, limits assumed, biotinylated); experiment: SPR, summary of FcγR affinities
T8 construct: Bought recombinant receptor; also called hFcγRIIa H131
T8 sequence (looked up): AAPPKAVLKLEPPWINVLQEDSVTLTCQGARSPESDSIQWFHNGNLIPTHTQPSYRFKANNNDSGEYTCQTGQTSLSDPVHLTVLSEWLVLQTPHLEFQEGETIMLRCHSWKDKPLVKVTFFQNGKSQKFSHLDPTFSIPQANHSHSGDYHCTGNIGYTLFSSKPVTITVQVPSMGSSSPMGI

[10] = molecular target: T9, Cynomolgus CD64 (cynomolgus monkey, UniProt A0A2K5U901 33-309, Probably biotinylated for capture, as in the sister examples (p-1094).); experiment: SPR, summary of FcγR affinities
T9 construct: Bought recombinant receptor; also called cFcγRI; Cynomolgus CD64 (FcγRI); not shown: The vendor's biotinylation and purification tag

[11] = molecular target: T10, Cynomolgus CD16 (cynomolgus monkey, UniProt Q8SPW2 17-208, biotinylated); experiment: SPR, summary of FcγR affinities
T10 construct: Bought recombinant receptor; also called cFcγRIII; Cynomolgus FcγRIII

[12] = molecular target: T11, Human CD32a R131 (human, UniProt P12318 36-218, limits assumed, biotinylated); experiment: SPR, summary of FcγR affinities
T11 construct: Bought recombinant receptor; also called hFcγRIIa R131
T11 sequence (looked up): T8 sequence (looked up) with H132R

[13] = molecular target: T12, Human CD16a F158 (human, UniProt P08637 17-208, biotinylated); experiment: SPR, summary of FcγR affinities
T12 construct: Bought recombinant receptor; also called hFcγRIIIa F158

[14] = molecular target: T5, Human CD32b; experiment: SPR, summary of FcγR affinities
[15] = molecular target: T13, human CLEC12A expressed on cells (human, UniProt Q5QGZ9 1-265); experiment: flow cytometry, HL60
T13 construct: Transduced isogenic cells or endogenous expression on AML cells; also called RMA-hCLEC12A; Ba/F3-hCLEC12A
T13 sequence: T4 sequence

T6 sequence (P12314 16-288 limits assumed): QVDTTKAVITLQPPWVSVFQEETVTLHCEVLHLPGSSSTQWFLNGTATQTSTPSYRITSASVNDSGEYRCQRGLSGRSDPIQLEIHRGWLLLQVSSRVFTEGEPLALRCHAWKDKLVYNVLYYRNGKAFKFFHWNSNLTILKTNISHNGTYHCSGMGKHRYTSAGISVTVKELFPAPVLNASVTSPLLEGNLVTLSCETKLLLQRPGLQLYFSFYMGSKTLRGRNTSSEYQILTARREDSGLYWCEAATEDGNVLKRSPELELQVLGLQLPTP
T9 sequence (A0A2K5U901 entry or part of it limits assumed): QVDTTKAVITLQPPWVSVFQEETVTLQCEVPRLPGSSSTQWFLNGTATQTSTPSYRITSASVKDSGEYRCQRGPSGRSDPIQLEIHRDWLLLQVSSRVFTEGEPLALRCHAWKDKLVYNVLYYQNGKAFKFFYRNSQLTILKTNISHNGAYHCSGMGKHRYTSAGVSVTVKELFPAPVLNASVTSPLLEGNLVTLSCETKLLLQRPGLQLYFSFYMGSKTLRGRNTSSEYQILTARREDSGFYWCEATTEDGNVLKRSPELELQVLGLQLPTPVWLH
T3 sequence (Q8SPW2 17-208 limits assumed): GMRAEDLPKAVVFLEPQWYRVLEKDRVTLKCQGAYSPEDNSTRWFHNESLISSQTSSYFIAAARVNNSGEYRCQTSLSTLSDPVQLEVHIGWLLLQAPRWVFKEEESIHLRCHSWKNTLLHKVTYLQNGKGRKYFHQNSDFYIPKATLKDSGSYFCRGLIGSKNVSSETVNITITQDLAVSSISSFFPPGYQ
T10 sequence (Q8SPW2 17-208 limits assumed): as above
T12 sequence (P08637 17-208 limits assumed): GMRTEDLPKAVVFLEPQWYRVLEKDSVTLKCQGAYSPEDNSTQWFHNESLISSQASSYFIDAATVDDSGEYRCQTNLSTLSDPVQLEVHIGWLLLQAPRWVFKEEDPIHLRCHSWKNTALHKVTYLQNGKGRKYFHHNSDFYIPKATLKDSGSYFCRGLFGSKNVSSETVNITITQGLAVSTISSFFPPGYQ
T7 sequence (O75015 17-200 limits assumed): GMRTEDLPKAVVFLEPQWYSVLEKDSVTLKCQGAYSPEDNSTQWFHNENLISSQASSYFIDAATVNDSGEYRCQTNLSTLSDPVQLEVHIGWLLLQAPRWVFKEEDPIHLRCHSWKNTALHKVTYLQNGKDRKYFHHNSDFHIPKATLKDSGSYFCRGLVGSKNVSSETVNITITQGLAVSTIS

B1: F3'-1602 TriNKET (bispecific antibody, human IgG1, kappa)
chain: QLQLQESGPGLVKPSETLSLTCTVSGFSLTNYGLHWIRQPPGKCLEWIGVIWSGGKTDYNPSLKSRVTISKDTSKNQFSLKLSSVQAADTAVYYCAKYDYDDSLDYWGQGTLVTVSSGGGGSGGGGSGGGGSGGGGSDIQMTQSPSSLSASVGDRVTITCHASQNINFWLSWYQQKPGKAPKLLIYEASNLHTGVPSRFSGSGSGTRFTLTISSLQPEDIATYYCQQSHSYPLTFGCGTKLEIKGSDKTHTCPPCPAPELLGGPSVFLFPPKPKDTLMISRTPEVTCVVVDVSHEDPEVKFNWYVDGVEVHNAKTKPREEQYNSTYRVVSVLTVLHQDWLNGKEYKCKVSNKALPAPIEKTISKAKGQPREPRVYTLPPCRDELTKNQVSLTCLVKGFYPSDIAVEWESNGQPENNYKTTPPVLVSDGSFTLYSKLTVDKSRWQQGNVFSCSVMHEALHNHYTQKSLSLSPG
heavy: EVQLVESGGGLVKPGGSLRLSCAASGFTFSSYSMNWVRQAPGKGLEWVSSISSSSSYIYYADSVKGRFTISRDNAKNSLYLQMNSLRAEDTAVYYCARGAPIGAAAGWFDPWGQGTLVTVSSASTKGPSVFPLAPSSKSTSGGTAALGCLVKDYFPEPVTVSWNSGALTSGVHTFPAVLQSSGLYSLSSVVTVPSSSLGTQTYICNVNHKPSNTKVDKKVEPKSCDKTHTCPPCPAPELLGGPSVFLFPPKPKDTLMISRTPEVTCVVVDVSHEDPEVKFNWYVDGVEVHNAKTKPREEQYNSTYRVVSVLTVLHQDWLNGKEYKCKVSNKALPAPIEKTISKAKGQPREPQVCTLPPSRDELTENQVSLTCLVKGFYPSDIAVEWESNGQPENNYKTTPPVLDSDGSFFLYSWLTVDKSRWQQGNVFSCSVMHEALHNHYTQKSLSLSPG
light: DIQMTQSPSSVSASVGDRVTITCRASQGISSWLAWYQQKPGKAPKLLIYAASSLQSGVPSRFSGSGSGTDFTLTISSLQPEDFATYYCQQGVSFPRTFGGGTKVEIKRTVAAPSVFIFPPSDEQLKSGTASVVCLLNNFYPREAKVQWKVDNALQSGNSQESVTEQDSKDSTYSLSSTLTLSKADYEKHKVYACEVTHQGLSSPVTKSFNRGEC
notes: Trispecific F3' format: CLEC12A scFv-Fc paired with NKG2D Fab-Fc; Stressed and control samples of the stability studies are the same molecule; also called AB0237
- Kd [1]: 694 nM
- koff [1]: 0.125 s⁻¹
- kon [1]: 180000 M⁻¹ s⁻¹

B2: AB0089 TriNKET (bispecific antibody, human IgG1, kappa)
chain: B1 chain with S53V, K56A, K71V, Y98G, D101G, S103T, R207D, I220F
heavy: B1 heavy
light: B1 light
notes: F3' format heterodimer of three chains; human IgG1 Fc with EW-RVT and Y349C/S354C mutations; also called AB0089 Lot AB0089-002; CLEC12A TriNKET AB0089
- Kd [2]: 0.9 nM
- Kd [3]: 349 nM
- EC50, NK cell induction of IFNγ and CD107a in co-culture with HL60 cells (mean of three donors) [4]: 0.05 nM

B3: AB0192 TriNKET (other)
chain: EVQLVESGGGVVQPGGSLRLSCAASGFTFNAFGMHWVRQAPGKCLEWVAFISSGSTSIYYANTVKGRFTISRDNSKNTLYLQMNSLRAEDTAVYYCARDGYPTGGAMDYWGQGTSVTVSSGGGGSGGGGSGGGGSGGGGSDIQMTQSPSSLSASVGDRVTITCKASQDIYNYLSWFQQKPGKAPKPLIYRANILVSGVPSRFSGSGSGQDYTFTISSLQPEDIATYYCLQFDAFPFTFGCGTKLEIKGSDKTHTCPPCPAPELLGGPSVFLFPPKPKDTLMISRTPEVTCVVVDVSHEDPEVKFNWYVDGVEVHNAKTKPREEQYNSTYRVVSVLTVLHQDWLNGKEYKCKVSNKALPAPIEKTISKAKGQPREPRVYTLPPCRDELTKNQVSLTCLVKGFYPSDIAVEWESNGQPENNYKTTPPVLVSDGSFTLYSKLTVDKSRWQQGNVFSCSVMHEALHNHYTQKSLSLSPG
heavy: B1 heavy
light: B1 light
notes: the condition stands under assay; also called AB0192 Lot AB0192-005
- Kd [5]: 6100 nM
- Kd [6]: 5.2 nM
- koff [6]: 0.00025 s⁻¹
- kon [6]: 48000 M⁻¹ s⁻¹
- Kd [7]: 5.2 nM
- Kd [8]: 6010 nM
- Kd [9]: 1010 nM
- Kd [10]: 1.9 nM
- Kd [11]: 204 nM
- Kd [12]: 1400 nM
- Kd [13]: 680 nM
- Kd [14]: 6060 nM

B4: F3'-1602 TriNKET (other)
chain: B1 chain
heavy: B1 heavy
light: B1 light
notes: CLEC12A scFv-Fc, NKG2D A49MI Fab-Fc, human IgG1 Fc; also called AB0237
- EC50 [15]: 1.1 nM
